# Laboratory results from publication doi:10.1101/2025.05.11.653314.
# Biological target: U. parvum Smc (Ureaplasma parvum)
# Test: cross-linking
substance,measurement,value
U. parvum Smc (enzyme),stoichiometry N,2
